Data set [1] deals with CCK1R. As to the kind of experiment: Affinity of amidated gastrins for CCK1R. It counts as binding.
Data set [2] deals with T1, Anx A2 (Rattus norvegicus, UniProt Q07936).
T1 construct: the 36 kDa Anx A2 protein, prepared from cancer cells/tumor membranes; endogenous in cells
Conditions: Anx A2 prepared from cancer cells/tumor membranes; cited from earlier work.

The nature of data set [3]: Biological activity of PG26. From the text: For data presented in FIGS. 2-4, 5A-5B and 6A-6E, the full length 80 amino acid rhPG was used (SEQ ID NO: 2), which was visualized by staining with fluorescently labeled primary or secondary antibodies. However, in order to examine the feasibility of using PG peptides for diagnostic and treatment purposes, synthesized FITC labeled PG fragments (PG26, SEQ ID NO 1: […]) conjugated with either radio- or fluorescently labeled imaging reagents (for diagnostic purposes), or with cytotoxic payloads (for therapeutic purposes) was studied. […] Endocytotic internalization of FITC-PG26 in PG responsive immortalized kidney embryonic cell line, HEK-293, was examined. Strong peri-nuclear co-localization of FITC-PG26 with Anx A2 was measured within 15 min of labeling in a chase experiment (FIG. 7). […] The homing potential of FITC-PG26 to Anx A2 over-expressing tumors, growing as xenografts in nude mice, was confirmed, as shown in FIGS. 8A-8E.

The test system of data set [4] is colon cancer xenograft. As to the kind of experiment: Homing of FITC-PG26 to Anx A2 over-expressing tumors growing as xenografts in nude mice. The data set is classed as in vivo. The procedure:
FIGS. 8A-E depict 10-100 μg of FITC-PG-26 peptide was dissolved in 100 μl of saline was used to detect the tumor in nude mice. The images were captured in live mice after 1-60 minutes, with injection on the tumor site (FIG. 8A) or through tail vein (FIGS. 8B-D). In FIG. 8B, the localization of tumor cells are marked with arrows detected after 5 minutes post tail vein injection.
For data presented in FIGS. 2-4, 5A-5B and 6A-6E, the full length 80 amino acid rhPG was used (SEQ ID NO: 2), which was visualized by staining with fluorescently labeled primary or secondary antibodies. […] Strong peri-nuclear co-localization of FITC-PG26 with Anx A2 was measured within 15 min of labeling in a chase experiment (FIG. 7). […]
The 26 amino acid PG peptide (PG26), labeled with FITC at the N-terminal end, specifically homed to the site of a colon cancer xenograft, growing either under the skin or growing as a metastatic lesion in the liver. […] Even small tumor lesions were detected with FITC-PG26 after […] of tail vein injection (FIG. 8B). FITC-control peptide was not detected after 30 min of injecting into the tail vein (FIG. 8E), confirming the specificity of FITC-PG26 peptide for homing to tumors in situ.

The subject of data set [5] is immortalized cells (IEC, HEK-293) and cancer cell lines (from ovaries/colons). The data set is described as follows: Co-localization of PG with Anx A2 in PG-responsive cells. It counts as cell-based. The following applies: cells responsive to growth effects of PG peptides. From the text:
(§1) Adenoma and adenocarcinomas tissue sections (from ovarian and colorectal cancers of patients) were positive for Anx A2 expression, while normal tissues were negative (FIGS. 4, 5A-5B). Immortalized intestinal epithelial cell line (IEC-18) are used, which responds to the growth and anti-apoptotic effects of PG peptides (9), for further investigating the biology of interaction of PG with Anx A2. Intra-cellular translocation of labeled PG was examined in IEC-18 cells. […] Using fluoroscense assisted sorting with labeled anti-Anx A2-Abs, presence of extracellular Anx A2 was confirmed on IEC-18 cells (FIG. 6B).

Data set [6] deals with IEC-18 cells. The data set is described as follows: Intra-cellular translocation of PG in IEC-18 cells (confocal microscopy, pull down/WB, Anx A2 siRNA). The data set is classed as cell-based. The procedure:
FIGS. 6A-6E depict the binding of PG with ANXII. FIG. 6A depicts immuno-colocalization of ANXII/PG in IEC cells, incubated with PG. E. IEC-18 cells were seeded, on sterile glass cover slips. Following overnight culture cells were incubated with PG (1 nM) from 0-15 min, and washed 3× with chilled PBS. Cells were fixed in acetone:methanol for 20 min at −20° C., and incubated with anti-PG or anti-ANXII-Abs, followed by fluorescence labeling with second Abs. Images were captured by confocal microscopy at 60×. Insets represent computer assisted enlarged images. Arrows depict co-localization on membranes. […] Cells in culture were detached with liberase to make single cell suspensions and incubated with either non-immune IgG or anti-ANXII-Ab for 2 hours at room temperature, washed with chilled PBS followed by incubation with FITC-second-Ab for 1 hours at room temperature. FIG. 6C depicts IEC-18 cells in culture treated with PG for 0-15 min except for Lamp1 (treated for 0-30 min) at 37° C. and washed with chilled PBS 3×. Cells were processed for pull down with anti-PG-Ab and processed for WB analysis for either EEA1/ANXII/PG/Lamp1. […] The inset portion of the co-localization staining is also shown.
as §1
Since Anx A2 lacks transmembrane domains, mechanisms mediating translocation of Anx A2/PG from outer cell membranes towards intracellular compartments remains unknown. Anx A2 also binds transmembrane proteins such as CD44, which are over-expressed in cancer cells. Thus the tumor specific expression of CD44-like transmembrane proteins offers an additional level of cancer-specific regulation, allowing intra-cellular translocation of PG-Anx A2 only in tumor cells. […] Co-localization of PG/Anx A2 with the early endosomal marker (EEA1) was examined. Cellular lysates from IEC-18 cells, treated with PG for 0, 5 and 15 min, were pulled down with anti-PG Abs and processed for WB analysis for EEA1, Lamp1 (lysomal marker), Anx A2 and PG (FIG. 6C). Possible in situ co-localization of EEA1 with PG was also examined after 15 min of PG stimulation by confocal microscopy (FIG. 6D). […]

Data set [7] addresses Anx A2 (Homo sapiens, UniProt P07355). The data set is described as follows: In vitro binding assay and co-IP of rhPG and ANX-II. Conditions: in vitro binding assay, FIG. 3.
Text: Lane 1 is rhPG; lane 2 is ANX-II; lanes 3 and 4 are rhPG and ANX-II; lane 3 is IP with anti-PG (aPG); lane 4 is IP with anti-ANX-II (aANX-II). All the samples were processed for WB with both aPG and ANX-II.
as §1

Ends that are not written are not given here. Peptide text beside a SMILES is read from it. * marks the point of attachment. FITC = O=C1OC2(c3ccc(O)cc3Oc3cc(O)ccc32)c2ccc(NC(=S)*)cc21

T1 sequence (Q07936 whole entry): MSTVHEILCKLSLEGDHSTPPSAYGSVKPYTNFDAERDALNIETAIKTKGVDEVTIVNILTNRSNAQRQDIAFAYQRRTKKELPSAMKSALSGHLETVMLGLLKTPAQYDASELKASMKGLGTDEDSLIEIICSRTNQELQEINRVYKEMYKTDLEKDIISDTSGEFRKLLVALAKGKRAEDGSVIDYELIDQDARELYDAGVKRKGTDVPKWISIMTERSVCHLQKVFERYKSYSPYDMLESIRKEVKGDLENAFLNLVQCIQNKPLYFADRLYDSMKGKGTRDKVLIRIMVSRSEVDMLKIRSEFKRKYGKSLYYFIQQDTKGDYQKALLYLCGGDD
Sequence of Anx A2 (Homo sapiens, UniProt P07355) (P07355 whole entry, species assumed): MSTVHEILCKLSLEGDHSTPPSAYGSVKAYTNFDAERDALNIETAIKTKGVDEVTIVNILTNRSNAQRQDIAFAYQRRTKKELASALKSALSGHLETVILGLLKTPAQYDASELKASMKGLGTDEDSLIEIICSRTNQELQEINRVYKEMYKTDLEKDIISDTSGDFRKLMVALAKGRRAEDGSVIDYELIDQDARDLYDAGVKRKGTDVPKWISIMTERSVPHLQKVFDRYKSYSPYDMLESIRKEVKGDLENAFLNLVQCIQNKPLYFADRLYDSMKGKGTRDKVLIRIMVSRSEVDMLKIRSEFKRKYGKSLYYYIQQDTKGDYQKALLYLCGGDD

For the molecule G17: amidated gastrin, the “affinity for CCK1R” value in data set [1] is “much higher affinity”.

Turning to “G34: amidated gastrin (QLGPQGPPHLVADPSKKQGPWLEEEEEAYGWMDF-NH2; ends and bridges not checked; UniProt P01350 59-92, looked up)”, the “affinity for CCK1R” value in data set [1] is reported as “much higher affinity”.

Turning to “CCK8: cholecystokinin CCK8 [reference compound]”, the “Relative binding affinity (RBA) for the 36 kDa Anx A2 protein, rank order” value (“Relative binding affinity (RBA)” for short) in data set [2] is given as “no affinity”.

With “QGPWLEEEEEAYGWMDFGRRSAEDEN (homing progastrin peptide specifically binding annexin2) [PG26, 26 amino acid PG peptide fragment]”, the biological activity entry in data set [3] is recorded as “biologically active”.

As to `CSCC[C@H](NC(=O)[C@H](Cc1c[nH]c2ccccc12)NC(=O)CNC(=O)[C@H](Cc1ccc(O)cc1)NC(=O)[C@H](C)NC(=O)[C@H](CCC(=O)O)NC(=O)[C@H](CCC(=O)O)NC(=O)[C@H](CCC(=O)O)NC(=O)[C@H](CCC(=O)O)NC(=O)[C@H](CCC(=O)O)NC(=O)[C@H](CC(C)C)NC(=O)[C@H](Cc1c[nH]c2ccccc12)NC(=O)[C@@H]1CCCN1C(=O)CNC(=O)[C@H](CCC(N)=O)NC(=S)Nc1ccc2c(c1)C(=O)OC21c2ccc(O)cc2Oc2cc(O)ccc21)C(=O)N[C@@H](CC(=O)O)C(=O)N[C@@H](Cc1ccccc1)C(=O)NCC(=O)N[C@@H](CCCNC(=N)N)C(=O)N[C@@H](CCCNC(=N)N)C(=O)N[C@@H](CO)C(=O)N[C@@H](C)C(=O)N[C@@H](CCC(=O)O)C(=O)N[C@@H](CC(=O)O)C(=O)N[C@@H](CCC(=O)O)C(=O)N[C@@H](CC(N)=O)C(=O)O` [FITC-PG26] ({FITC}-QGPWLEEEEEAYGWMDFGRRSAEDEN-OH; N-terminus and C-terminus assumed), the “retention in the tumor” value in data set [4] (i.v. injection through the tail vein, FIG. 8C) is approximately 60 min. In data set [4] (injected intra-tumorally, FIG. 8A), the “retention of fluorescence in tumor” value was more than 20 min.

B1: PG: full length 80 amino acid rhPG (SEQ ID NO: 2) (protein)
chain: SWKPRSQQPDAPLGTGANRDLELPWLEQQGPASHHRRQLGPQGPPHLVADPSKKQGPWLEEEEEAYGWMDFGRRSAEDEN
modifications: recombinant human progastrin
As for B1, in data set [2], the “Relative binding affinity (RBA)” value is “PG>G-Gly>G17”. In addition, the “co-localization of PG with Anx A2” value in data set [5] is on record as “strong co-localization”. Besides, in data set [6] (IEC18 cells treated with specific siRNA against Anx A2, FIG. 6E), the PG binding/uptake entry is “completely negative”. In data set [6] (IEC-18 cells, FIG. 6A), the “localization of PG/Anx A2 after addition of PG” value is given as “initial co-localization of PG with Anx A2 on the cellular membranes, followed by rapid intracellular localization”. The “time to translocation of Anx A2 and PG into early endosomes” value in data set [6] (after PG stimulation, IEC-18 cells) is listed as not above 5 min. Also, the “increase in co-IP of Lamp1 with PG” value in data set [6] (later time points, FIG. 6C) is approximately 5 fold. Further, the “binding of Anx A2 and rhPG” value in data set [7] is listed as “Direct binding”.

B2: G-Gly: glycine-extended gastrin, processing intermediate of progastrin (peptide)
peptide: B1 chain
For the molecule B2, the “Relative binding affinity (RBA)” value in data set [2] is recorded as “PG>G-Gly>G17”.

(Values after patent US20110085986A1, “Diagnosis and treatment of epithelial cancers using labeled/conjugated progastrin peptides” (priority 2009, published 2011).)
